Reference: patent US20260167699A1 (Chugai, published 2026)

T1: FcγRIIa(R) (human, UniProt P12318 34-217)
T1 construct: extracellular domain; also called FcγRIIa R type; 2aR
T1 sequence: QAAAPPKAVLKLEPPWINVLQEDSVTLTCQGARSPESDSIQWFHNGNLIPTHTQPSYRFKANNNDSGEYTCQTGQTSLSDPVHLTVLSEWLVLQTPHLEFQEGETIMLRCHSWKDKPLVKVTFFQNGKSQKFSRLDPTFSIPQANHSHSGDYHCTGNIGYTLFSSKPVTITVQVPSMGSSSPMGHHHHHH

T2: FcγRIIb (human, UniProt P31994 43-217)
T2 construct: extracellular domain; also called 2b
T2 sequence: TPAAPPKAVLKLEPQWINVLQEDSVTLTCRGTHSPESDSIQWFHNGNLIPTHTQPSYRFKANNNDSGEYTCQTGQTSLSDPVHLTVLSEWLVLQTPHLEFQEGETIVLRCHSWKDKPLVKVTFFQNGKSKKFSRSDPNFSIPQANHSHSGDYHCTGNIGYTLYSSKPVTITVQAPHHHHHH

T3: FcγRIIa(H) (human, UniProt P12318 34-217)
T3 construct: extracellular domain; also called FcγRIIa H type; 2aH
T3 sequence: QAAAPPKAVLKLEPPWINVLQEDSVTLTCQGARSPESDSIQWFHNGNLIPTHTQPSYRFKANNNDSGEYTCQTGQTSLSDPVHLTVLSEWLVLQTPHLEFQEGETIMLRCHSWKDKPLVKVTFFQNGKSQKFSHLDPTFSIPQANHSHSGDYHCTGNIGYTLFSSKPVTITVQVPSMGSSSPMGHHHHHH


Columns and labels:
Assay in all cases: SPR (Biacore), binding relative to GpH7-A5/GpH7-B3/GpL16-k0 x100;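 further: surface plasmon resonance at 25 °C, antibody captured on a sensor chip and soluble FcγR flowed over it in HBS-EP+ running buffer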
FcγRIa = target: T4, FcγRIa (human, UniProt P12314 16-292)
T4 construct: extracellular domain; also called 1a
T4 sequence (P12314 other isoform, or with tags, fused parts or gaps): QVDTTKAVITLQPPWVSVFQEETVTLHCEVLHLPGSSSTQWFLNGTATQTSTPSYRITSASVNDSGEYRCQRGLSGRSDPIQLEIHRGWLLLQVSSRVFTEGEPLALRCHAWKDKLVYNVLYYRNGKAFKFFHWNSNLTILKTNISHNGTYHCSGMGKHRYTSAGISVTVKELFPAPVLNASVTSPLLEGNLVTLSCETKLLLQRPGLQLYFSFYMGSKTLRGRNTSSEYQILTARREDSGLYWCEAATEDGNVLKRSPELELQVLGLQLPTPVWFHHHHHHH
Experimental: (§1) The antibody of interest was analyzed for its interaction with FcγR using a BiaCore™ T100, BiaCore™ A100, or BiaCore™ 4000 surface plasmon resonance system (GE Healthcare Japan Corp.). The running buffer used was HBS-EP+ (GE Healthcare Japan Corp.). The assay temperature was set to 25° C. The sensor chips used were: a chip prepared by immobilizing antigenic peptides onto Series S Sensor Chip CM5 (GE Healthcare Japan Corp.) by the amine coupling method; a chip prepared by immobilizing antigenic peptides biotinylated in advance onto Series S Sensor Chip SA (certified) (GE Healthcare Japan Corp.) through their interaction; a chip prepared by immobilizing protein L (ACTIGEN, BioVision, Inc.) onto Series S Sensor Chip CM5 (GE Healthcare Japan Corp.); and a chip prepared by immobilizing protein A/G (Thermo Fisher Scientific K.K.) onto Series S Sensor Chip CM5 (GE Healthcare Japan Corp.). The antibody of interest was captured onto any of these chips and allowed to interact with FcγR diluted with a running buffer. The antibody captured on the chip was washed off through the reaction of 10 mM glycine-HCl (pH 1.5) to regenerate the chip, which was repetitively used.

FcγRIIa(R) = target: T1, FcγRIIa(R)
Experimental: as §1

FcγRIIb = target: T2, FcγRIIb
Experimental: as §1

FcγRIIa(H) = target: T3, FcγRIIa(H)
Experimental: as §1

Binder | He/Con 1a (FcγRIa) [%] | He/Con 2aR (FcγRIIa(R)) [%] | He/Con 2b (FcγRIIb) [%] | He/Con 2aH (FcγRIIa(H)) [%]
GpH7-A5/GpH7-B3 variant H268_20W/GpL16-k0 (antibody, human IgG1, kappa, heterodimerized IgG1, one H chain mutated; also called He Ab) heavy 1: not shown heavy 2: not shown light: DIVMTQSPLSLPVTPGEPASISCQASESLVHSNRNTYLHWYLQKPGQSPQLLIYKVSNRFSGVPDRFSGSGSGTDFTLKISRVEAEDVGVYYCSQNTHVPPTFGQGTKVEIERTVAAPSVFIFPPSDEQLKSGTASVVCLLNNFYPREAKVQWKVDNALQSGNSQESVTEQDSKDSTYSLSSTLTLSKADYEKHKVYACEVTHQGLSSPVTKSFNRGEC | 103 | 122 | 117 | 96.9
GpH7-A5/GpH7-B3 variant L234_01G/GpL16-k0 (antibody, human IgG1, kappa, heterodimerized IgG1, one H chain mutated; also called He Ab) heavy 1: not shown heavy 2: not shown light: DIVMTQSPLSLPVTPGEPASISCQASESLVHSNRNTYLHWYLQKPGQSPQLLIYKVSNRFSGVPDRFSGSGSGTDFTLKISRVEAEDVGVYYCSQNTHVPPTFGQGTKVEIERTVAAPSVFIFPPSDEQLKSGTASVVCLLNNFYPREAKVQWKVDNALQSGNSQESVTEQDSKDSTYSLSSTLTLSKADYEKHKVYACEVTHQGLSSPVTKSFNRGEC | 99.2 | 72.4 | 57.8 | 84.1
GpH7-A5/GpH7-B3 variant L234_02A/GpL16-k0 (antibody, human IgG1, kappa, heterodimerized IgG1, one H chain mutated; also called He Ab) heavy 1: not shown heavy 2: not shown light: DIVMTQSPLSLPVTPGEPASISCQASESLVHSNRNTYLHWYLQKPGQSPQLLIYKVSNRFSGVPDRFSGSGSGTDFTLKISRVEAEDVGVYYCSQNTHVPPTFGQGTKVEIERTVAAPSVFIFPPSDEQLKSGTASVVCLLNNFYPREAKVQWKVDNALQSGNSQESVTEQDSKDSTYSLSSTLTLSKADYEKHKVYACEVTHQGLSSPVTKSFNRGEC | 101 | 92.5 | 74.1 | 90.1
GpH7-A5/GpH7-B3 variant L234_03V/GpL16-k0 (antibody, human IgG1, kappa, heterodimerized IgG1, one H chain mutated; also called He Ab) heavy 1: not shown heavy 2: not shown light: DIVMTQSPLSLPVTPGEPASISCQASESLVHSNRNTYLHWYLQKPGQSPQLLIYKVSNRFSGVPDRFSGSGSGTDFTLKISRVEAEDVGVYYCSQNTHVPPTFGQGTKVEIERTVAAPSVFIFPPSDEQLKSGTASVVCLLNNFYPREAKVQWKVDNALQSGNSQESVTEQDSKDSTYSLSSTLTLSKADYEKHKVYACEVTHQGLSSPVTKSFNRGEC | 108 | 99 | 83.4 | 94.4
GpH7-A5/GpH7-B3 variant L234_04F/GpL16-k0 (antibody, human IgG1, kappa, heterodimerized IgG1, one H chain mutated; also called He Ab) heavy 1: not shown heavy 2: not shown light: DIVMTQSPLSLPVTPGEPASISCQASESLVHSNRNTYLHWYLQKPGQSPQLLIYKVSNRFSGVPDRFSGSGSGTDFTLKISRVEAEDVGVYYCSQNTHVPPTFGQGTKVEIERTVAAPSVFIFPPSDEQLKSGTASVVCLLNNFYPREAKVQWKVDNALQSGNSQESVTEQDSKDSTYSLSSTLTLSKADYEKHKVYACEVTHQGLSSPVTKSFNRGEC | 104 | 121 | 114 | 133
GpH7-A5/GpH7-B3 variant L234_05P/GpL16-k0 (antibody, human IgG1, kappa, heterodimerized IgG1, one H chain mutated; also called He Ab) heavy 1: not shown heavy 2: not shown light: DIVMTQSPLSLPVTPGEPASISCQASESLVHSNRNTYLHWYLQKPGQSPQLLIYKVSNRFSGVPDRFSGSGSGTDFTLKISRVEAEDVGVYYCSQNTHVPPTFGQGTKVEIERTVAAPSVFIFPPSDEQLKSGTASVVCLLNNFYPREAKVQWKVDNALQSGNSQESVTEQDSKDSTYSLSSTLTLSKADYEKHKVYACEVTHQGLSSPVTKSFNRGEC | 103 | 104 | 83.2 | 104
GpH7-A5/GpH7-B3 variant L234_06M/GpL16-k0 (antibody, human IgG1, kappa, heterodimerized IgG1, one H chain mutated; also called He Ab) heavy 1: not shown heavy 2: not shown light: DIVMTQSPLSLPVTPGEPASISCQASESLVHSNRNTYLHWYLQKPGQSPQLLIYKVSNRFSGVPDRFSGSGSGTDFTLKISRVEAEDVGVYYCSQNTHVPPTFGQGTKVEIERTVAAPSVFIFPPSDEQLKSGTASVVCLLNNFYPREAKVQWKVDNALQSGNSQESVTEQDSKDSTYSLSSTLTLSKADYEKHKVYACEVTHQGLSSPVTKSFNRGEC | 107 | 109 | 89.6 | 96.4
GpH7-A5/GpH7-B3 variant L234_07I/GpL16-k0 (antibody, human IgG1, kappa, heterodimerized IgG1, one H chain mutated; also called He Ab) heavy 1: not shown heavy 2: not shown light: DIVMTQSPLSLPVTPGEPASISCQASESLVHSNRNTYLHWYLQKPGQSPQLLIYKVSNRFSGVPDRFSGSGSGTDFTLKISRVEAEDVGVYYCSQNTHVPPTFGQGTKVEIERTVAAPSVFIFPPSDEQLKSGTASVVCLLNNFYPREAKVQWKVDNALQSGNSQESVTEQDSKDSTYSLSSTLTLSKADYEKHKVYACEVTHQGLSSPVTKSFNRGEC | 106 | 110 | 92.3 | 101
GpH7-A5/GpH7-B3 variant L234_09D/GpL16-k0 (antibody, human IgG1, kappa, heterodimerized IgG1, one H chain mutated; also called He Ab) heavy 1: not shown heavy 2: not shown light: DIVMTQSPLSLPVTPGEPASISCQASESLVHSNRNTYLHWYLQKPGQSPQLLIYKVSNRFSGVPDRFSGSGSGTDFTLKISRVEAEDVGVYYCSQNTHVPPTFGQGTKVEIERTVAAPSVFIFPPSDEQLKSGTASVVCLLNNFYPREAKVQWKVDNALQSGNSQESVTEQDSKDSTYSLSSTLTLSKADYEKHKVYACEVTHQGLSSPVTKSFNRGEC | 101 | 142 | 172 | 100

Other lines, results leading:

He/Con 1a (FcγRIa) [%] | He/Con 2aR (FcγRIIa(R)) [%] | He/Con 2b (FcγRIIb) [%] | He/Con 2aH (FcγRIIa(H)) [%] | Binder
104 | 130 | 134 | 98.2 | GpH7-A5/GpH7-B3 variant L234_10E/GpL16-k0 (antibody, human IgG1, kappa, heterodimerized IgG1, one H chain mutated; also called He Ab) heavy 1: not shown heavy 2: not shown light: DIVMTQSPLSLPVTPGEPASISCQASESLVHSNRNTYLHWYLQKPGQSPQLLIYKVSNRFSGVPDRFSGSGSGTDFTLKISRVEAEDVGVYYCSQNTHVPPTFGQGTKVEIERTVAAPSVFIFPPSDEQLKSGTASVVCLLNNFYPREAKVQWKVDNALQSGNSQESVTEQDSKDSTYSLSSTLTLSKADYEKHKVYACEVTHQGLSSPVTKSFNRGEC
100 | 82.6 | 67.7 | 89.4 | GpH7-A5/GpH7-B3 variant L234_13S/GpL16-k0 (antibody, human IgG1, kappa, heterodimerized IgG1, one H chain mutated; also called He Ab) heavy 1: not shown heavy 2: not shown light: DIVMTQSPLSLPVTPGEPASISCQASESLVHSNRNTYLHWYLQKPGQSPQLLIYKVSNRFSGVPDRFSGSGSGTDFTLKISRVEAEDVGVYYCSQNTHVPPTFGQGTKVEIERTVAAPSVFIFPPSDEQLKSGTASVVCLLNNFYPREAKVQWKVDNALQSGNSQESVTEQDSKDSTYSLSSTLTLSKADYEKHKVYACEVTHQGLSSPVTKSFNRGEC
102 | 90 | 71.4 | 86.8 | GpH7-A5/GpH7-B3 variant L234_14T/GpL16-k0 (antibody, human IgG1, kappa, heterodimerized IgG1, one H chain mutated; also called He Ab) heavy 1: not shown heavy 2: not shown light: DIVMTQSPLSLPVTPGEPASISCQASESLVHSNRNTYLHWYLQKPGQSPQLLIYKVSNRFSGVPDRFSGSGSGTDFTLKISRVEAEDVGVYYCSQNTHVPPTFGQGTKVEIERTVAAPSVFIFPPSDEQLKSGTASVVCLLNNFYPREAKVQWKVDNALQSGNSQESVTEQDSKDSTYSLSSTLTLSKADYEKHKVYACEVTHQGLSSPVTKSFNRGEC
103 | 113 | 110 | 134 | GpH7-A5/GpH7-B3 variant L234_15Y/GpL16-k0 (antibody, human IgG1, kappa, heterodimerized IgG1, one H chain mutated; also called He Ab) heavy 1: not shown heavy 2: not shown light: DIVMTQSPLSLPVTPGEPASISCQASESLVHSNRNTYLHWYLQKPGQSPQLLIYKVSNRFSGVPDRFSGSGSGTDFTLKISRVEAEDVGVYYCSQNTHVPPTFGQGTKVEIERTVAAPSVFIFPPSDEQLKSGTASVVCLLNNFYPREAKVQWKVDNALQSGNSQESVTEQDSKDSTYSLSSTLTLSKADYEKHKVYACEVTHQGLSSPVTKSFNRGEC
97 | 83.5 | 67.8 | 97.1 | GpH7-A5/GpH7-B3 variant L234_16H/GpL16-k0 (antibody, human IgG1, kappa, heterodimerized IgG1, one H chain mutated; also called He Ab) heavy 1: not shown heavy 2: not shown light: DIVMTQSPLSLPVTPGEPASISCQASESLVHSNRNTYLHWYLQKPGQSPQLLIYKVSNRFSGVPDRFSGSGSGTDFTLKISRVEAEDVGVYYCSQNTHVPPTFGQGTKVEIERTVAAPSVFIFPPSDEQLKSGTASVVCLLNNFYPREAKVQWKVDNALQSGNSQESVTEQDSKDSTYSLSSTLTLSKADYEKHKVYACEVTHQGLSSPVTKSFNRGEC
97.3 | 98 | 92 | 100 | GpH7-A5/GpH7-B3 variant L234_18N/GpL16-k0 (antibody, human IgG1, kappa, heterodimerized IgG1, one H chain mutated; also called He Ab) heavy 1: not shown heavy 2: not shown light: DIVMTQSPLSLPVTPGEPASISCQASESLVHSNRNTYLHWYLQKPGQSPQLLIYKVSNRFSGVPDRFSGSGSGTDFTLKISRVEAEDVGVYYCSQNTHVPPTFGQGTKVEIERTVAAPSVFIFPPSDEQLKSGTASVVCLLNNFYPREAKVQWKVDNALQSGNSQESVTEQDSKDSTYSLSSTLTLSKADYEKHKVYACEVTHQGLSSPVTKSFNRGEC
98.8 | 87.2 | 68.9 | 88.1 | GpH7-A5/GpH7-B3 variant L234_19Q/GpL16-k0 (antibody, human IgG1, kappa, heterodimerized IgG1, one H chain mutated; also called He Ab) heavy 1: not shown heavy 2: not shown light: DIVMTQSPLSLPVTPGEPASISCQASESLVHSNRNTYLHWYLQKPGQSPQLLIYKVSNRFSGVPDRFSGSGSGTDFTLKISRVEAEDVGVYYCSQNTHVPPTFGQGTKVEIERTVAAPSVFIFPPSDEQLKSGTASVVCLLNNFYPREAKVQWKVDNALQSGNSQESVTEQDSKDSTYSLSSTLTLSKADYEKHKVYACEVTHQGLSSPVTKSFNRGEC
